Data reported in PMC5818060.

Tests used:
[1] = target: His-DDX3X^414-582 (human) (UniProt O00571); experiment: fluorescence thermal shift (FTS) assay; 10 µM His-DDX3X^414-582, 20 µM peptide, 50 mM HEPES pH 8, 10x SYPRO-Orange; change of melting temperature
[2] = target: His-DDX3X^414-582 (human) (UniProt O00571); experiment: fluorescence thermal shift (FTS) assay; FTS with varying concentrations of peptide; melting temperatures fitted to single site or simple cooperative ligand binding, preferred model chosen

Sequence of His-DDX3X^414-582 (human) (O00571 414-582): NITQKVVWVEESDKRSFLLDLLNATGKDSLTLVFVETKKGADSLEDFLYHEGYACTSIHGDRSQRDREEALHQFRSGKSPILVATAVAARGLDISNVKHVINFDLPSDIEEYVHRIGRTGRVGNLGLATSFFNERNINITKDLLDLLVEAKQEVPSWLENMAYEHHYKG

Substance: CK1δ-derived peptide δ-41 (from UniProt P48730 41-55)
- increase of the melting temperature (Tm) of His-DDX3X^414-582 [1]: 5 °C
- Kd [2]: 5.49 µM
